Measured values as given in article PMC4215226, “The Chlamydia Effector TarP Mimics the Mammalian Leucine-Aspartic Acid Motif of Paxillin to Subvert the Focal Adhesion Kinase during Invasion*” (The Journal of Biological Chemistry, 2014).

Target: focal adhesion kinase (FAK) (human (endogenous in HeLa), UniProt Q05397 1-1052)
Experiment: cell-based or functional assay

Chain of focal adhesion kinase (FAK) (Q05397 whole entry): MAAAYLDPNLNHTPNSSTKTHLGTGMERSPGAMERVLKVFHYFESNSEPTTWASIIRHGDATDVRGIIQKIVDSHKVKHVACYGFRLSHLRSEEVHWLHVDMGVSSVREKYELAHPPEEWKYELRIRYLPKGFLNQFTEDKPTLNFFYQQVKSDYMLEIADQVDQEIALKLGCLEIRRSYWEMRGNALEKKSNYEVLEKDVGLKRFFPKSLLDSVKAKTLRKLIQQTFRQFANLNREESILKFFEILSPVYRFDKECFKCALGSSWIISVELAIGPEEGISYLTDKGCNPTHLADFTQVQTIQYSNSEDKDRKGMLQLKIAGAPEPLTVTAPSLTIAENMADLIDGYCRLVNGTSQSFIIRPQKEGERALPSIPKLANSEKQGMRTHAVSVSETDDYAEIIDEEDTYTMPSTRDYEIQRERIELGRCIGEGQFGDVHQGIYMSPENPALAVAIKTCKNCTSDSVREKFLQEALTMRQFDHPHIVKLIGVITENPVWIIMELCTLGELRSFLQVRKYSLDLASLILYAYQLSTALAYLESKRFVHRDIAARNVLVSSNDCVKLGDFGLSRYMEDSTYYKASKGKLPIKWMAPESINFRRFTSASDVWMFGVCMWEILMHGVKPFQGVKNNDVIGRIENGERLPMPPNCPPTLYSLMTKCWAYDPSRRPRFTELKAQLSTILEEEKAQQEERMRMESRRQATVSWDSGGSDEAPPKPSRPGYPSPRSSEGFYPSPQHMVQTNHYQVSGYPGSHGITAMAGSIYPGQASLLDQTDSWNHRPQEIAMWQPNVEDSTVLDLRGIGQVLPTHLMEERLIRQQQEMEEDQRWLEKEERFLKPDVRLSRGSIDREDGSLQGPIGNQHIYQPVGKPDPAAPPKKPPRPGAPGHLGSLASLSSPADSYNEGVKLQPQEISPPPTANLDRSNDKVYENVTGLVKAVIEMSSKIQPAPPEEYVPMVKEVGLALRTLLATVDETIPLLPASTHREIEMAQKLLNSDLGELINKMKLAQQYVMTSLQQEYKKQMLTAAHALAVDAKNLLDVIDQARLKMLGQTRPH

B1: Cya18-Pax-LD2 (domain or fragment, UniProt P49024 125-186, looked up)
chain: KSAEPSPTMTSTSLGSNLSELDRLLLELNAVQHNPPSGFSADEVSRSPSLPNVTGPHYVIPE
colocalisation of endogenous pY397-FAK with adhered Δtir EPEC in Cos7 cells expressing TirM-Pax-LD2, increase relative to the TirM-only negative control: 2.4 fold
